This passage reports Km results from PMC5372246, “Co-production of hydrogen and ethanol from glucose in Escherichia coli by activation of pentose-phosphate pathway through deletion of phosphoglucose isomerase (pgi) and overexpression of glucose-6-phosphate dehydrogenase (zwf) and 6-phosphogluconate dehydrogenase (gnd)” (Biotechnology for Biofuels, 2017).

Substrate in this data set: NC(=O)c1ccc[n+]([C@@H]2O[C@H](COP(=O)(O)OP(=O)(O)OC[C@H]3O[C@@H](n4cnc5c(N)ncnc54)[C@H](OP(=O)(O)O)[C@@H]3O)[C@@H](O)[C@H]2O)c1
The data set can be described thus: purified protein. The class given is biochemical, Escherichia coli. The note with it: co-substrate 6-phosphogluconate, general assay: Tris-HCl pH 7.5, 1 mM MgCl2, 30 °C.

B1: Gnd (GE), 6-phosphogluconate dehydrogenase (Escherichia coli K-12) (protein)
chain: MSKQQIGVVGMAVMGRNLALNIESRGYTVSIFNRSREKTEEVIAENPGKKLVPYYTVKEFVESLETPRRILLMVKAGAGTDAAIDSLKPYLDKGDIIIDGGNTFFQDTIRRNRELSAEGFNFIGTGVSGGEEGALKGPSIMPGGQKEAYELVAPILTKIAAVAEDGEPCVTYIGADGAGHYVKMVHNGIEYGDMQLIAEAYSLLKGGLNLTNEELAQTFTEWNNGELSSYLIDITKDIFTKKDEDGNYLVDVILDEAANKGTGKWTSQSALDLGEPLSLITESVFARYISSLKDQRVAASKVLSGPQAQPAGDKAEFIEKVRRALYLGKIVSYAQGFSQLRAASEEYNWDLNYGEIAKIFRAGCIIRAQFLQKITDAYAENPQIANLLLAPYFKQIADDYQQALRDVVAYAVQNGIPVPTFSAAVAYYDSYRAAVLPANLIQAQRDYFGAHTYKRIDKEGVFHTEWLD
notes: full-length, C-terminal His-tag, Ni-NTA purified from E. coli, 51 kDa on SDS-PAGE
In the case of B1, the Km (in general, the concentration of substrate that gives half-maximal velocity) is on record as 40 µM.
